What was measured:
[1] = molecular target: Biotinylated MPER peptide (HIV-1); assay: BLI; biotinylated MPER peptide (30 nM) loaded on streptavidin biosensors to 0.6 nm, Octet RED96; Fabs at 50 and 100 nM; 0.5% BSA in PBS with 0.05% Tween 20; association 5 min, dissociation 10 min; values of the two concentrations averaged
recombinant FcγRI = recombinant FcγRI (UniProt P12314); assay: ELISA; conditions: highest mAb concentration, about 200 nM (est. from x axis); parent: est. 0.73; read off a plot
Chain of UniProt P12314 (P12314 16-292): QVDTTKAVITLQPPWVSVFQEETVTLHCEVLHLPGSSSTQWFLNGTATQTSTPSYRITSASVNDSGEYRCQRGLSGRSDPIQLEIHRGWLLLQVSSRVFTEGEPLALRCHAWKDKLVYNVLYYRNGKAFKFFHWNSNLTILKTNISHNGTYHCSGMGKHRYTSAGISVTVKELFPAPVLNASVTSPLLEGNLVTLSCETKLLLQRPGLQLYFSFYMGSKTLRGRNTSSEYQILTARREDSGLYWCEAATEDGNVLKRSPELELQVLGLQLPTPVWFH

Q: For 10E8 Fab, which Kd [1] is on record?
A: 3.8 nM

Q: And the koff [1]?
A: 0.0016 s⁻¹

Q: Which response (Absorbance at 450nm) (recombinant FcγRI) does the source give for “10E8v4 WT antibody (IgG) L234A; L235A; P329G” here?
A: 0.05
